Values joined by “and” are separate entries in the source; they are usually repeats but may differ in a detail not shown here. Identical values can stand only once. Like-named read-outs stand apart in the source and are kept apart here.
What was measured:
[1] = target: Isotopically depleted, truncated, strepII-tagged R. rubrum encapsulated ferritin (wild type) (Rhodospirillum rubrum); test: native MS
[2] = target: Isotopically depleted, truncated, strepII-tagged R. rubrum encapsulated ferritin (wild type) (Rhodospirillum rubrum); test: native MS; remark: listed apart in the source
[3] = target: Isotopically depleted, truncated, strepII-tagged R. rubrum encapsulated ferritin (wild type) (Rhodospirillum rubrum); test: native MS; remark: listed apart in the source
[4] = target: Isotopically depleted, truncated, strepII-tagged R. rubrum encapsulated ferritin (wild type) (Rhodospirillum rubrum); test: native MS; remark: listed apart in the source
[5] = target: Isotopically depleted, truncated, strepII-tagged R. rubrum encapsulated ferritin (wild type) (Rhodospirillum rubrum); test: native MS; remark: listed apart in the source
[6] = target: Isotopically depleted, truncated, strepII-tagged R. rubrum encapsulated ferritin (wild type) (Rhodospirillum rubrum); test: native MS; remark: listed apart in the source
SEC = target: the molecule itself; test: SEC
native MS [7] = target: the molecule itself; test: native MS
[8] = target: T1, Rhodospirillum rubrum encapsulin (Rhodospirillum rubrum, UniProt Q2RVS0 1-280); test: SEC
T1 sequence: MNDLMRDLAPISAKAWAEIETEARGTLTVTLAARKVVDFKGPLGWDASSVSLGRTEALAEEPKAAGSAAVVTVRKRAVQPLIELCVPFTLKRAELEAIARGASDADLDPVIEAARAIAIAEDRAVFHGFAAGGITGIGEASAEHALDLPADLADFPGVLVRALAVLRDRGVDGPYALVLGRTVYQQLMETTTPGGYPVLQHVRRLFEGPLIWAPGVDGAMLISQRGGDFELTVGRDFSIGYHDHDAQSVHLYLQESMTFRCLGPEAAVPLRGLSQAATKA

native MS [9] = target: the molecule itself; test: native MS; remark: listed apart in the source
crystal structure = target: the molecule itself; test: crystal structure

Molecule: Isotopically depleted, truncated, strepII-tagged R. rubrum encapsulated ferritin (wild type) (domain or fragment)
- stoichiometry N [1]: 2
- stoichiometry N [2]: 4
- stoichiometry N [3]: 10
- stoichiometry N [4]: 10
- stoichiometry N [5]: 2
- stoichiometry N [6]: 10

B1: Rhodospirillum rubrum encapsulated ferritin, wild type (natural protein)
chain: MAQSSNSTHEPLEVLKEETVNRHRAIVSVMEELEAVDWYDQRVDASTDPELTAILAHNRDEEKEHAAMTLEWLRRNDAKWAEHLRTYLFTEGPITAIEAADTAGEGSGGDAAKGATAQGDGSLGIGSLKGEAALARPPRL
- stoichiometry N (SEC): 10 and 4
- stoichiometry N (native MS [7]): 2
- binding result [8]: binds

B2: Rhodospirillum rubrum encapsulated ferritin E31A variant (natural protein)
chain: MAQSSNSTHEPLEVLKEETVNRHRAIVSVMAELEAVDWYDQRVDASTDPELTAILAHNRDEEKEHAAMTLEWLRRNDAKWAEHLRTYLFTEGPITAIEAADTAGEGSGGDAAKGATAQGDGSLGIGSLKGEAALARPPRL
- stoichiometry N (SEC): 4 and 2
- stoichiometry N (native MS [9]): 10
- binding result [8]: binds

B3: Rhodospirillum rubrum encapsulated ferritin W38G variant (natural protein)
chain: MAQSSNSTHEPLEVLKEETVNRHRAIVSVMEELEAVDGYDQRVDASTDPELTAILAHNRDEEKEHAAMTLEWLRRNDAKWAEHLRTYLFTEGPITAIEAADTAGEGSGGDAAKGATAQGDGSLGIGSLKGEAALARPPRL
- binding result [8]: binds

B4: Rhodospirillum rubrum encapsulated ferritin E34A variant (natural protein)
chain: MAQSSNSTHEPLEVLKEETVNRHRAIVSVMEELAAVDWYDQRVDASTDPELTAILAHNRDEEKEHAAMTLEWLRRNDAKWAEHLRTYLFTEGPITAIEAADTAGEGSGGDAAKGATAQGDGSLGIGSLKGEAALARPPRL
- stoichiometry N (SEC): 4 and 2
- stoichiometry N (native MS [9]): 10
- binding result [8]: binds

B5: Rhodospirillum rubrum encapsulated ferritin W38A variant (natural protein)
chain: MAQSSNSTHEPLEVLKEETVNRHRAIVSVMEELEAVDAYDQRVDASTDPELTAILAHNRDEEKEHAAMTLEWLRRNDAKWAEHLRTYLFTEGPITAIEAADTAGEGSGGDAAKGATAQGDGSLGIGSLKGEAALARPPRL
- binding result [8]: binds

B6: Truncated, C-terminally hexahistidine-tagged R. rubrum encapsulated ferritin E31A variant (domain or fragment)
chain: MAQSSNSTHEPLEVLKEETVNRHRAIVSVMAELEAVDWYDQRVDASTDPELTAILAHNRDEEKEHAAMTLEWLRRNDAKWAEHLRTYLFTEGPITA
- stoichiometry N (crystal structure): 10

B7: Truncated, C-terminally hexahistidine-tagged R. rubrum encapsulated ferritin E34A variant (domain or fragment)
chain: MAQSSNSTHEPLEVLKEETVNRHRAIVSVMEELAAVDWYDQRVDASTDPELTAILAHNRDEEKEHAAMTLEWLRRNDAKWAEHLRTYLFTEGPITA
- stoichiometry N (crystal structure): 10
